Results as given in US6890721.

Biological target: poly (ADP-ribose) polymerase (PARP)

Protein | PARP cleavage (immunoblot with anti-PARP monoclonal antibody C-2-10)
granzyme B-processed ICE LAP-6 (activated) (protein) IGSGGFGDVGALESLRGNADLAYILSMEPCGHCLIINNVNFCRESGLRTRTGSNIDCEKLRRRFSSLHFMVEVKGDLTAKKMVLALLELARQDHGALDCCVVVILSHGCQASHLQFPGAVYGTDGCPVSVEKIVNIFNGTSCPSLGGKPKLFFIQACGGEQKDHGFEVASTSPEDESPGSNPEPDATPFQEGLRTFDQLDAISSLPTPSDIFVSYSTFPGFVSWRDPKSGSWYVETLDDIFEQWAHSEDLQSLLLRVANAVSVKGIYKQMPGCFNFLRKKLFFKTSHHHHHH | Both granzyme B-processed Yama and ICE LAP-6 were active as determined by their ability to cleave PARP
granzyme B-processed Yama (activated) (protein) SGISLDNSYKMDYPEMGLCIIINNKNFHKSTGMTSRSGTDVDAANLRETFRNLKYEVRNKNDLTREEIVELMRDVSKEDHSKRSSFVCVLLSHGEEGIIFGTNGPVDLKKITNFFRGDRCRSLTGKPKLFIIQACRGTELDCGIETDSGVDDDMACHKIPVEADFLYAYSTAPGYYSWRNSKDGSWFIQSLCAMLKQYADKLEFMHILTRVNRKVATEFESFSFDATFHAKKQIPCIVSMLTKELYFYH | Both granzyme B-processed Yama and ICE LAP-6 were active as determined by their ability to cleave PARP
